These results are taken from paper PMC12629460.

What all share (experiment): cryo-EM structure
In experiment [1] the target is PltBd2 in the endogenously expressed DiaT holotoxin purified from S. diarizonae (S. diarizonae).
The target in experiment [2] is PltBd1 recombinantly expressed in E. coli as part of a holotoxin (S. diarizonae).
Experiment [3] concerns the target PltBd2 recombinantly expressed in E. coli as part of the PltBd2 homopentameric holotoxin (S. diarizonae).

Substance “PltBd1 in the endogenously expressed DiaT holotoxin purified from S. diarizonae (natural protein)” yielded a stoichiometry N (PltBd1 per PltBd2 (3:2)) in experiment [1] of 1.5.
As a reminder, the stoichiometry N is a count of units in the complex or per binding partner. Regarding “PltBd1 recombinantly expressed in E. coli as part of a holotoxin (natural protein)”, in experiment [2], the stoichiometry N is 5.
With “PltBd2 recombinantly expressed in E. coli as part of the PltBd2 homopentameric holotoxin (natural protein)”, in experiment [3], the stoichiometry N was 5.
